Laboratory results reported in US20080095778A1, “Treatment Of Fungal Infections” (priority 2004, published 2008).

Columns and labels:
Aspergillus species = assay: Antifungal activity with Mycograb antibody, summary over the Aspergillus species examined; type: cell-based; conditions: summary of Tables 1-4; for Antifungal activity / surprising effect when used in combination with Mycograb antibody: agent combined with Mycograb antibody
Description: (§1) An inoculum suspension was prepared in buffered RPMI with glutamine medium by probing colonies from a 7 day old Sabouraud plate. The suspension was adjusted to 0.09-0.11 (80% to 82% transmittance) for Aspergillus species, 0.15-0.17 (68% to 70% transmittance). The inoculum was diluted a further 1:2 when added to the antifungal agents in the assay (final inoculum (0.4×10^4 to 0.5×10^4). For AMB and Mycograb®, either alone or in combination, the endpoint was determined as the concentration to produce no growth (MIC-0). Microtitre plates were incubated at 37° C. without agitation for 48 hours for Aspergillus species. For caspofungin, voriconazole and itraconazole, either alone or in combination with Mycograb® antibody, the MIC endpoint was determined as the concentration resulting in a prominent decrease in turbidity (≧50% growth inhibition, MIC-2) compared to the growth control (Keele et al. 2001; Espinel-Ingroff 2003). The final inhibitory concentration (FIC) was calculated for each drug by dividing the MIC in the presence of the second drug by the MIC in its absence. For each combination, two fractions were produced which were summated to produce the fractional final inhibitory concentration. Synergy was defined by value of ≦0.5, indifference was defined by a value of >0.5 to <4.0, and antagonism was defined by a value of ≧4.0 (Matthews et al., 2003).

Candida strains = conditions: prior finding, WO 01/76627; cited from earlier work
A. fumigatus = assay: Broth microdilution (NCCLS M38-A) checkerboard assay, A. fumigatus; type: cell-based, Aspergillus fumigatus; conditions: for FIC: MIC in combination divided by MIC alone
Description: (§2) Stock solutions of amphotericin B (AMB, Sigma), caspofungin (Caspo), voriconazole (VOR) and itraconazole (ITZ) were prepared according to the National Committee for Clinical Laboratory Standards (M38-A) in RPMI 1640 with glutamine broth medium, buffered to pH 7.0 with […] morpholinopropanesulphonic acid (MOPS). AMB stock solutions were prepared as a 100× series in 100% dimethyl sulfoxide (DMSO) and diluted in medium to a concentration range of 0.03125 to 16 μg/ml. Caspofungin, voriconazole and itraconazole were tested at a concentration range of 0.03125 to 1024 μg/ml, and Mycograb® (NeuTec Pharma plc) at a concentration range of 0.25 to 1024 μg/ml.
(§3) Clinical isolates of Aspergillus fumigatus (2), A. flavus (1), A. terreus (1) and A. niger (1) were obtained from the Department on Microbiology, Manchester Royal Infirmary, Manchester, UK.
as §1

A. fumigatus CI2 = assay: Broth microdilution (NCCLS M38-A) checkerboard assay, A. fumigatus CI2; type: cell-based, Aspergillus fumigatus; conditions: for FIC: MIC in combination divided by MIC alone
Description: as §2, §3, §1

A. niger = assay: Broth microdilution (NCCLS M38-A) checkerboard assay, A. niger; type: cell-based; conditions: for FIC: MIC in combination divided by MIC alone
Description: as §2, §3, §1

A. flavus = assay: Broth microdilution (NCCLS M38-A) checkerboard assay, A. flavus; type: cell-based; conditions: for FIC: MIC in combination divided by MIC alone
Description: as §2, §3, §1

A. terreus = assay: Broth microdilution (NCCLS M38-A) checkerboard assay, A. terreus; type: cell-based; conditions: for FIC: MIC in combination divided by MIC alone
Description: as §2, §3, §1

[1] = Aspergillus fumigatus, agent alone, Table 4, ≧50% growth inhibition endpoint, read-out: MIC-2 of each agent, Alone
[2] = voriconazole and Mycograb combination
[3] = voriconazole and Mycograb in combination
[4] = agent alone, Table 1, no growth endpoint
[5] = agent alone, Table 2, ≧50% growth inhibition endpoint
[6] = agent alone, Table 3, ≧50% growth inhibition endpoint
[7] = agent alone, Table 4, ≧50% growth inhibition endpoint
[8] = amphotericin B and Mycograb in combination
[9] = caspofungin and Mycograb in combination
[10] = itraconazole and Mycograb in combination

## OC(Cn1cncn1)(Cn1cncn1)c1ccc(F)cc1F [fluconazole]
Aspergillus species
  Antifungal activity / surprising effect when used in combination with Mycograb antibody: not observed
Candida strains
  Synergy in combination with Mycograb antibody against Candida strains: little synergy

## C[C@@H](c1ncncc1F)[C@](O)(Cn1cncn1)c1ccc(F)cc1F [VOR, voriconazole]
A. fumigatus; [1]
  MIC: 0.0625 µg/mL
A. fumigatus; [2]
  FICI: 0.5
  Outcome: Synergy (Synergy was defined by value of ≦0.5)
A. fumigatus; [3]
  MIC-2 of each agent, Combination: 0.0312 µg/mL
A. fumigatus CI2; [1]
  MIC: 0.25 µg/mL
A. fumigatus CI2; [2]
  FICI: 0.5
  Outcome: Synergy (Synergy was defined by value of ≦0.5)
A. fumigatus CI2; [3]
  MIC-2 of each agent, Combination: 0.125 µg/mL
A. niger; Aspergillus niger, agent alone, Table 4, ≧50% growth inhibition endpoint, read-out: MIC-2 of each agent, Alone
  MIC: 0.125 µg/mL
A. niger; [2]
  FICI: 2
  Outcome: Indifferent (indifference was defined by a value of >0.5 to <4.0)
A. niger; [3]
  MIC-2 of each agent, Combination: 0.125 µg/mL
A. flavus; Aspergillus flavus, agent alone, Table 4, ≧50% growth inhibition endpoint, read-out: MIC-2 of each agent, Alone
  MIC: 0.25 µg/mL
A. flavus; [2]
  FICI: 0.25
  Outcome: Synergy (Synergy was defined by value of ≦0.5)
A. flavus; [3]
  MIC-2 of each agent, Combination: 0.0625 µg/mL
A. terreus; Aspergillus terreus, agent alone, Table 4, ≧50% growth inhibition endpoint, read-out: MIC-2 of each agent, Alone
  MIC: 0.25 µg/mL
A. terreus; [2]
  FICI: 0.5
  Outcome: Synergy (Synergy was defined by value of ≦0.5)
A. terreus; [3]
  MIC-2 of each agent, Combination: 0.125 µg/mL
A. terreus; voriconazole and Mycograb
  FIC: 0.5 µg/mL
Aspergillus species
  Antifungal activity / surprising effect when used in combination with Mycograb antibody: surprisingly high level of antifungal activity against all the species examined except for A. niger

B1: Mycograb: antibody specific for a fungal hsp90 stress protein epitope (SEQ ID NO: 1), comprising the sequence of SEQ ID NO: 3, expressed in E. coli (protein)
scFv: HMAEVQLVESGAEVKKPGESLRISCKGSGCIISSYWISWVRQMPGKGLEWMGKIDPGDSYINYSPSFQGHVTISADKSINTAYLQWNSLKASDTAMYYCARGGRDFGDSFDYWGQGTLVTVSSGGGGSGGGGSGGGGSDVVMTQSPSFLSAFVGDRITITCRASSGISRYLAWYQQAPGKAPKLLIYAASTLQTGVPSRFSGSGSGTEFTLTINSLQPEDFATYYCQHLNSYPLTFGGGTKVDIKRAA
modifications: Synthetically generated peptide
A. fumigatus; [4]
  MIC-0 of each agent, Alone: 512 µg/mL
A. fumigatus; [5]
  MIC-2 of each agent, Alone: 1024 µg/mL
A. fumigatus; [6]
  MIC-2 of each agent, Alone: 1024 µg/mL
A. fumigatus; [7]
  MIC-2 of each agent, Alone: 1024 µg/mL
A. fumigatus; [8]
  MIC-0 of each agent, Combination: 4 µg/mL
A. fumigatus; amphotericin B and Mycograb
  FIC: 0.01
A. fumigatus; [9]
  MIC-2 of each agent, Combination: 32 µg/mL
A. fumigatus; caspofungin and Mycograb
  FIC: 0.062
A. fumigatus; [10]
  MIC-2 of each agent, Combination: 16 µg/mL
A. fumigatus; itraconazole and Mycograb
  FIC: 0.016
A. fumigatus; [3]
  MIC-2 of each agent, Combination: 0.25 µg/mL
A. fumigatus; voriconazole and Mycograb
  FIC: 0.0002
A. fumigatus CI2; [4]
  MIC-0 of each agent, Alone: 512 µg/mL
A. fumigatus CI2; [5]
  MIC-2 of each agent, Alone: 1024 µg/mL
A. fumigatus CI2; [6]
  MIC-2 of each agent, Alone: 1024 µg/mL
A. fumigatus CI2; [7]
  MIC-2 of each agent, Alone: 1024 µg/mL
A. fumigatus CI2; [8]
  MIC-0 of each agent, Combination: 16 µg/mL
A. fumigatus CI2; amphotericin B and Mycograb
  FIC: 0.031
A. fumigatus CI2; [9]
  MIC-2 of each agent, Combination: 16 µg/mL
A. fumigatus CI2; caspofungin and Mycograb
  FIC: 0.062
A. fumigatus CI2; [10]
  MIC-2 of each agent, Combination: 8 µg/mL
A. fumigatus CI2; itraconazole and Mycograb
  FIC: 0.008
A. fumigatus CI2; [3]
  MIC-2 of each agent, Combination: 0.25 µg/mL
A. fumigatus CI2; voriconazole and Mycograb
  FIC: 0.0002
A. niger; [4]
  MIC-0 of each agent, Alone: 512 µg/mL
A. niger; [5]
  MIC-2 of each agent, Alone: 256 µg/mL
A. niger; [6]
  MIC-2 of each agent, Alone: 16 µg/mL
A. niger; [7]
  MIC-2 of each agent, Alone: 16 µg/mL
A. niger; [8]
  MIC-0 of each agent, Combination: 4 µg/mL
A. niger; amphotericin B and Mycograb
  FIC: 0.01
A. niger; [9]
  MIC-2 of each agent, Combination: 0.0625 µg/mL
A. niger; caspofungin and Mycograb
  FIC: 0.0001
A. niger; [10]
  MIC-2 of each agent, Combination: 4 µg/mL
A. niger; itraconazole and Mycograb
  FIC: 0.25
A. niger; [3]
  MIC-2 of each agent, Combination: 16 µg/mL
A. niger; voriconazole and Mycograb
  FIC: 1
A. flavus; [4]
  MIC-0 of each agent, Alone: 512 µg/mL
A. flavus; [5]
  MIC-2 of each agent, Alone: 512 µg/mL
A. flavus; [6]
  MIC-2 of each agent, Alone: 512 µg/mL
A. flavus; [7]
  MIC-2 of each agent, Alone: 512 µg/mL
A. flavus; [8]
  MIC-0 of each agent, Combination: 512 µg/mL
A. flavus; amphotericin B and Mycograb
  FIC: 1
A. flavus; [9]
  MIC-2 of each agent, Combination: 0.0625 µg/mL
A. flavus; caspofungin and Mycograb
  FIC: 0.0001
A. flavus; [10]
  MIC-2 of each agent, Combination: 0.25 µg/mL
A. flavus; itraconazole and Mycograb
  FIC: 0.0005
A. flavus; [3]
  MIC-2 of each agent, Combination: 0.25 µg/mL
A. flavus; voriconazole and Mycograb
  FIC: 0.0005
A. terreus; [4]
  MIC-0 of each agent, Alone: 512 µg/mL
A. terreus; [5]
  MIC-2 of each agent, Alone: 1024 µg/mL
A. terreus; [6]
  MIC-2 of each agent, Alone: 1024 µg/mL
A. terreus; [7]
  MIC-2 of each agent, Alone: 1024 µg/mL
A. terreus; [8]
  MIC-0 of each agent, Combination: 512 µg/mL
A. terreus; amphotericin B and Mycograb
  FIC: 1 µg/mL
A. terreus; [9]
  MIC-2 of each agent, Combination: 32 µg/mL
A. terreus; caspofungin and Mycograb
  FIC: 0.031 µg/mL
A. terreus; [10]
  MIC-2 of each agent, Combination: 32 µg/mL
A. terreus; itraconazole and Mycograb
  FIC: 0.031 µg/mL
A. terreus; [3]
  MIC-2 of each agent, Combination: 0.25 µg/mL
A. terreus; voriconazole and Mycograb
  FIC: 0.0002 µg/mL
Aspergillus species; Mycograb antibody alone
  Growth inhibition by antibody on its own: able to inhibit growth of certain Aspergillus species
